Experimental data taken from patent US20120219551A1.

Key:
CD32B-G2Ag (human) = CD32B-G2Ag (human) (UniProt P31994); assay: relative off-rate wt/variant; method not given (BIAcore elsewhere)
CD16A(F158) (human) = CD16A(F158) (human) (UniProt P08637); assay: as above
CD16A(V158) (human) = CD16A(V158) (human) (UniProt P08637); assay: as above
CD32A-G2Ag (human) = CD32A-G2Ag (human) (UniProt P12318); assay: as above
[1] = biological target: FcγRIIB, soluble dimeric protein (extracellular domain fused to the hinge-CH2-CH3 domain of human IgG2) (human) (UniProt P31994); assay: ELISA
[2] = biological target: FcγRIIIA, soluble monomeric protein (extracellular region joined to the linker-AVITAG sequence) (human) (UniProt P08637); assay: ELISA
[3] = biological target: FcγRIIIA on natural killer cells of human donor PBMC (human) (UniProt P08637); assay: cell-based or functional assay
[4] = biological target: soluble dimeric FcγRIIB-Fc fusion protein (extracellular domain of FcγRIIB fused to hinge-CH2-CH3 of human IgG2) (human) (UniProt P31994); assay: SPR (BIAcore), Fc mutant in ch4-4-20, off rate relative to wild type
[5] = biological target: soluble monomeric FcγRIIIA 158V (extracellular region joined to linker-AVITAG) (human) (UniProt P08637); assay: as above
[6] = biological target: soluble dimeric FcγRIIB-Fc fusion protein (extracellular domain of FcγRIIB fused to hinge-CH2-CH3 of human IgG2) (human) (UniProt P31994); assay: ELISA
[7] = biological target: soluble monomeric FcγRIIIA (extracellular region of FcγRIIIA joined to the linker-AVITAG sequence) (human) (UniProt P08637); assay: ELISA
[8] = biological target: soluble dimeric FcγRIIB-Fc fusion protein (extracellular domain of FcγRIIB fused to hinge-CH2-CH3 of human IgG2) (human) (UniProt P31994); assay: SPR (BIAcore), Ab captured on BSA-FITC, separate fit 200/800 nM

Chain of FcγRIIIA on natural killer cells of human donor PBMC (human) (P08637 17-254): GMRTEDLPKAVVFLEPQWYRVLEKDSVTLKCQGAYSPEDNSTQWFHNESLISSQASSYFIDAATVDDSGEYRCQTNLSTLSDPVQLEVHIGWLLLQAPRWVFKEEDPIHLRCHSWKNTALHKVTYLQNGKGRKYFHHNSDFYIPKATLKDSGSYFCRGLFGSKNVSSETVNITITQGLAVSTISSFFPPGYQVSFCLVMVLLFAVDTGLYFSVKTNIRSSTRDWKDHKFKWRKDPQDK
Chain of soluble monomeric FcγRIIIA 158V (extracellular region joined to linker-AVITAG) (human) (P08637 17-208 F176V): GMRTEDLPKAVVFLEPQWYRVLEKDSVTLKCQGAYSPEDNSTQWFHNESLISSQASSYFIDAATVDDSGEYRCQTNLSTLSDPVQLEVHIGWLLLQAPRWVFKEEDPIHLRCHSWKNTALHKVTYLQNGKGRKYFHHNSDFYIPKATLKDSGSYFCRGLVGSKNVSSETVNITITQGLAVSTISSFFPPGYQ
Chain of soluble dimeric FcγRIIB-Fc fusion protein (extracellular domain of FcγRIIB fused to hinge-CH2-CH3 of human IgG2) (human) (P31994 43-217): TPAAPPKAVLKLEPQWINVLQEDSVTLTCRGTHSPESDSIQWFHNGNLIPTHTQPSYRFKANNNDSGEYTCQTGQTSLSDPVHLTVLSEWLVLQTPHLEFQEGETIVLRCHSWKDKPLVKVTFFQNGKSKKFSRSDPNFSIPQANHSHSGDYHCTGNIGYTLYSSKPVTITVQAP
Chain of FcγRIIB, soluble dimeric protein (extracellular domain fused to the hinge-CH2-CH3 domain of human IgG2) (human) (P31994 43-217): as above
Chain of CD32A-G2Ag (human) (P12318 34-217): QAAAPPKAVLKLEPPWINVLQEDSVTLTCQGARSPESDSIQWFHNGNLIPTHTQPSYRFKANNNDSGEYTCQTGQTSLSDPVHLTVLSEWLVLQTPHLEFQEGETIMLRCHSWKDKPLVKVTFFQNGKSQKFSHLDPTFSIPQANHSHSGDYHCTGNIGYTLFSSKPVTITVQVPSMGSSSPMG
Chain of CD16A(V158) (human) (P08637 17-208 F176V): as the sequence (P08637 17-208 F176V) above
Chain of FcγRIIIA, soluble monomeric protein (extracellular region joined to the linker-AVITAG sequence) (human) (P08637 17-208 F176V limits assumed): as the sequence (P08637 17-208 F176V) above
Chain of CD32B-G2Ag (human) (P31994 43-217): as the sequence (P31994 43-217) above
Chain of CD16A(F158) (human) (P08637 17-208): as the sequence (P08637 17-208 F176V) above, with V160F counted along it
Chain of soluble monomeric FcγRIIIA (extracellular region of FcγRIIIA joined to the linker-AVITAG sequence) (human) (P08637 17-208): as the sequence (P08637 17-208 F176V) above, with V160F counted along it

| Substance | fold change vs WT [1] [fold] | Relative rate of lysis (ADCC, vs wild type ch4-4-20) [3] | Koff WT/Mut [4] | Koff WT/Mut [5] | further results |
| --- | --- | --- | --- | --- | --- |
| Antibody 2B6 3.5 Fc Variant 48 (F243L, R292P, V305I) |  |  |  |  | Koff ratio (wt/mut) (CD32B-G2Ag (human)): 0.2 wt/mut; Koff ratio (wt/mut) (CD16A(F158) (human)): 1.4 wt/mut; Koff ratio (wt/mut) (CD16A(V158) (human)): 2.6 wt/mut; Koff ratio (wt/mut) (CD32A-G2Ag (human)): 0.1 wt/mut |
| Antibody ch2.4G2 Fc Variant 51 (F243L, R292P, Y300L, V305I, P396L) |  |  |  |  | Koff ratio (wt/mut) (CD32B-G2Ag (human)): 3.2 wt/mut; Koff ratio (wt/mut) (CD16A(F158) (human)): 8.3 wt/mut; Koff ratio (wt/mut) (CD16A(V158) (human)): 10.1 wt/mut; Koff ratio (wt/mut) (CD32A-G2Ag (human)): 1.4 wt/mut |
| Fc variant D221Y, M252I, A330G, A339T, T359N, V422I, H433L (antibody) | 6 |  |  |  |  |
| Fc variant D399E, R292L, V185M (antibody) | 0.5 |  |  |  |  |
| Fc variant E258D, N384K (antibody) | 4 |  |  |  | fold change vs WT [2]: 1.25 fold |
| Fc variant K317N, F423-deleted (antibody) | 7 |  |  |  |  |
| Fc variant K370N, S440N (antibody) | 3.5 |  |  |  |  |
| Fc variant S415I, L251F (antibody) | 0.75 |  |  |  | fold change vs WT [2]: 0.5 fold |
| ch4-4-20 MgFc37 (K248M) (antibody) |  | 3.83 | 1.03 | 0.977 |  |
| ch4-4-20 MgFc38 (K392T, P396L) (antibody) |  | 3.07 | 2.3 | 1.64 |  |
| ch4-4-20 MgFc39 (E293V, Q295E, A327T) (antibody) |  | 4.29 | 1.3 | 0.86 |  |
| ch4-4-20 MgFc41 (H268N, P396L) (antibody) |  | 2.24 | 1.04 | 0.92 |  |
| ch4-4-20 MgFc43 (Y319F, P352L, P396L) (antibody) |  | 1.09 | 2.29 | 1.23 |  |
| ch4-4-20 MgFc43b (K288R, T307A, K344E, P396L) (antibody) |  | 3.3 | 0.89 | 1.27 |  |
| ch4-4-20 MgFc49 (K261N, K210M, P396L) (antibody) |  | 2.06 | 0.85 | 1.29 |  |
| ch4-4-20 Mut10 (P396L, A330S, K288N) (antibody) |  |  |  |  | ADCC, % [3]: 41%; ELISA, OD [6]: 1.2 OD; ELISA, OD [7]: 1 OD; Kd [8]: 41.3 nM |
